Results: paper PMC4381951, “Musashi proteins are post-transcriptional regulators of the epithelial-luminal cell state”
Numbering of substitutions follows the chain as printed.

B1: Jag1 3' UTR region 1 (ssRNA)
RNA: UGUCCAGUUAGAUCACUGUUUAGAU
B2: Jag1 3' UTR region 2 (ssRNA)
RNA: UCAAAGUAGAAUUUUUGUAUAGUUAUGUAAAUAAU
B3: Jag1 3' UTR region 2 mutant (ssRNA)
RNA: B2 RNA with A8C, G9C, A21C, G22C
B4: Jag1 3' UTR region 1 mutant (ssRNA)
RNA: UGUCCAGUUCCAUCACUGUUUCCAU

Key:
Details in all cases: protein: recombinant; tags: SBP tag (N-terminal); GST removed by PreScission
MSI1 (Musashi1) [1] = target: T1, MSI1 (Musashi1) (UniProt Q61474 1-362); test: EMSA; mean of 2 gel shifts; EMSA buffer not given; RBNS: 25 mM Tris pH 7.5, 150 mM KCl, 3 mM MgCl2, 0.01% Tween, 1 mg/ml BSA, 1 mM DTT, 30 ug/ml poly I/C, room temperature
T1 sequence (Q61474 whole entry): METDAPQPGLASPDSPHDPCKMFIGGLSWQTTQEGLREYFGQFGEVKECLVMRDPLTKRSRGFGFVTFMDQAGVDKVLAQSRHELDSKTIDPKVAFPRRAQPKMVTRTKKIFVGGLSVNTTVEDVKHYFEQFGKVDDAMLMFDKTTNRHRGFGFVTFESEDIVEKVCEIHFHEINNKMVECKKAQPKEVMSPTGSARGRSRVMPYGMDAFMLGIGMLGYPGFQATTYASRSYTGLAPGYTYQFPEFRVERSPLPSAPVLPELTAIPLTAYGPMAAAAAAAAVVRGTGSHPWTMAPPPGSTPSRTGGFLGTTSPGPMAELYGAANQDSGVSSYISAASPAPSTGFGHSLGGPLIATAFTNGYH

MSI1 (Musashi1) [2] = target: T1, MSI1 (Musashi1); test: EMSA; EMSA buffer not given; RBNS: 25 mM Tris pH 7.5, 150 mM KCl, 3 mM MgCl2, 0.01% Tween, 1 mg/ml BSA, 1 mM DTT, 30 ug/ml poly I/C, room temperature
MSI1 (Musashi1) [3] = target: T1, MSI1 (Musashi1); test: EMSA; no binding detected, Kd cannot be estimated; EMSA buffer not given; RBNS: 25 mM Tris pH 7.5, 150 mM KCl, 3 mM MgCl2, 0.01% Tween, 1 mg/ml BSA, 1 mM DTT, 30 ug/ml poly I/C, room temperature

| Binder | Kd (MSI1 (Musashi1) [1]) | further results |
| --- | --- | --- |
| B1 | 0.015 µM | – |
| B2 | 0.009 µM | – |
| B3 | – | Kd (MSI1 (Musashi1) [2]): 0.649 µM |
| B4 | – | binding result (MSI1 (Musashi1) [3]): no binding |
